In PMC8136821 (Nucleic Acids Research, 2021):

Target: RhpA DEAD-box RNA helicase of H. pylori, recombinant, His-tagged (H. pylori)
Experiment: SPR

B1: H. pylori RNase R (HpRNase R), recombinant, His-tagged (enzyme)
chain: MQGFLRSLFFGVKKIPKPFAPLVEKGVLKEALELKKDRYFLKEGFDIGKVEKVKDKAFFISLAKNYPKDPLIKNLPPSFKTDALILCQIECSKKRPIAFFKAALLNADHTMIAYLAKKNNQIVAIPFKEPFKKPVSLKHSQKSLLELPRHCVVKIDTKKREISEILGALEDPLIDENLSLSLFDRVKDFSKDCLNLAQHYAQLKASDFKDRINYSHIPFITIDPKDAKDFDDAIFYDQEKRVLFVAVADVSEFVPKHSSLDKEARVRGFSVYFPNSVYPMLPLSLSQGACSLKAFEKRLALVYEIPLDNLKNARLSQGVIEVRANCTYEEINHFLSANQSSLDKDLQQSLLGFLEMALKLKKERLKKGFNFNSFENKLYLNKEGRIEKIETEKESDAHTLIEEAMLLANQSSARLLDEHFHNKGIYRTHKEPSLEQQKRLYDKLFDYEIVRPKNMGFFPFLEHALKIAKEKSIEREVSRLIIKSQNLALYSPLQESHFGLGFASYTHFTSPIRRYSDLALHRLLKELLFYQAKGCSYLLEETPELCAELNALQKKAALIERDFIKRKFARLALELLEKEFLGVVLEVKDWVVVGLKEFIGLKVLVKTNKVFKPLEKVRVTITHADLILGQVRGEITERIKEHVS
- Kd: 29 ± 4.4 nM
- kon: 35000 M⁻¹ s⁻¹
